Legend:
PDGF-BB [1] = target: T1, PDGF-BB (UniProt P01127 P01127:82-190); assay: 10 or 100 nM splint DNA enhances affinity of bidentate aptamer; settings: chain copies: 2 (inferred, homodimer); linker region hybridised to 40-nt splint oligonucleotide
Source text: (§1) High molecular weight aptamer compositions capable of binding to platelet derived growth factor (PDGF) were produced using the following methods. A dimeric, or bidentate PDGF aptamer having the sequence shown in FIG. 4(A) was synthesized using standard reagents (oligonucleotides supplied by Integrated DNA Technologies, Coralville, Iowa). As shown in FIG. 4(B), the enhanced affinity of the bidentate aptamer to its target (either PDGF BB or AB) was greatest at higher protein concentrations where the binding conditions were 25° C. in 1×PBS with an RNA ligand concentration of <10 pM. […] This enhancement could reflect a splint-dependent reduction in rotational degrees of freedom within the linker region, leading to an increase in the effective concentration of the bidentate ligand. The addition of splint DNA to the monovalent aptamer to PDGF-BB had no effect on binding affinity (FIG. 5).

PDGF-BB [2] = target: T1, PDGF-BB; assay: enhanced affinity vs monomer, greatest at higher protein concentration; 1x PBS, 25 C, ligand <10 pM; settings: chain copies: 2 (inferred, homodimer)
Source text: as §1

PDGF-AB = PDGF-AB (UniProt P04085;P01127 P04085:87-211,P01127:82-190); assay: enhanced affinity stated for PDGF BB or AB; 1x PBS, 25 C, ligand <10 pM
Chain of PDGF-AB (P01127 82-190, chain 2 of 2, other chains not shown): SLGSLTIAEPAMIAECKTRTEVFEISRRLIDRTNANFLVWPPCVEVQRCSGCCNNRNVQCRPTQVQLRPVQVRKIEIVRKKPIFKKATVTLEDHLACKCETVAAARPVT
Source text: as §1

TGFβ2 = target: T2, TGFβ2 (UniProt P61812 P61812:303-414); assay: competition; monodentate control with 5-bp extension; competes similarly to bidentates with linkers of 30 nt or more; settings: chain copies: 2 (inferred, homodimer)
T2 sequence: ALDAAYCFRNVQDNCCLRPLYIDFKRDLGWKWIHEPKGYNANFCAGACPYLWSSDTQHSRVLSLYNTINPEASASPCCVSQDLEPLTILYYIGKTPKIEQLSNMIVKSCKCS

T1 sequence (P01127 82-190, one chain of several): as the sequence (P01127 82-190, chain 2 of 2, other chains not shown) above

B1: PDGF bidentate aptamer + splint DNA (structured_DNA)
DNA 1: TACTCAGGGCACTGCAAGCAATTGTGGTCCCAATGGGCTGAGTATGTGGTCTATGTCGTCGTTCGCTAGTAGTTCCTGGGCTGCACTCGAGGCGTAGAATTCCCCCGATGCGCGCTGTTCTTACTCAGGGCACTGCAAGCAATTGTGGTCCCAATGGGCTGAGTAT
DNA 2: AAAGGAATTCTACGCCTCGAGTGCAGCCCAGGAACTATTT
binding result (PDGF-BB [1]): binds

B2: PDGF bidentate aptamer (ssDNA)
DNA: TACTCAGGGCACTGCAAGCAATTGTGGTCCCAATGGGCTGAGTATGTGGTCTATGTCGTCGTTCGCTAGTAGTTCCTGGGCTGCACTCGAGGCGTAGAATTCCCCCGATGCGCGCTGTTCTTACTCAGGGCACTGCAAGCAATTGTGGTCCCAATGGGCTGAGTAT
binding result (PDGF-BB [2]): binds
binding result (PDGF-AB): binds

GCGCCGAGGUUAUUACAGAGUCUGUAUAGCUGUACUCGGCGC (ssRNA, 2'-F pyrimidines (inferred)) [ARC77 with 5-bp terminal extension]
binding result (TGFβ2): binds
